The values below come from patent US20260008815A1, “CYCLIC PEPTIDE OR SALT THEREOF, AND USES THEREOF” (FUJIFILM Corporation, priority 2023, published 2026).

Bridge positions count the residues as written; N and C are the ends. Ends that are not written are not given here. COCH2 = acetyl group that carries the bridge

The assay concerns the target T1, Recombinant Human FGFR2 alpha (IIIc) Fc Chimera Protein, CF (R&D systems, 712-FR-050) (human, UniProt P21802 22-377).
T1 construct: bought; not shown: Fc part of the chimera
As to the kind of experiment: ELISA on plate-bound FGFR2-Fc. Put shortly: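 Peptide binding scored by category from dose-response of background-corrected luminescence (FGFR-coated minus uncoated wells). Detection via anti-Myc antibody (2 h, room temperature) after 3 h peptide incubation on wells coated with 5 ng FGFR2 alpha (IIIc)-Fc.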
On the technique in general: ELISA stands for enzyme-linked immunosorbent assay.

T1 sequence (P21802 22-377, change not shown): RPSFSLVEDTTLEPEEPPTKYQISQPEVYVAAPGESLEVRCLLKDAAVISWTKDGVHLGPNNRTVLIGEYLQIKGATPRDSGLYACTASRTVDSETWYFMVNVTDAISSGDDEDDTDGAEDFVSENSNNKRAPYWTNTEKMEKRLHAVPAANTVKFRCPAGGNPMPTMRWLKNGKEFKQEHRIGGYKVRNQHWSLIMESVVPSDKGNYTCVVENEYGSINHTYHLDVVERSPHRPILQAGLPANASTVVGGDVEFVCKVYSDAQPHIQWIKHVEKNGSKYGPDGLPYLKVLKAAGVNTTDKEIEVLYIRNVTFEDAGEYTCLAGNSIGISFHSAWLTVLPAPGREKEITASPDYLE

With YCEENYMDPEQYQYFIYFK(COCH2)Y (thioether 2-19) [cyclic peptide SEQ ID NO: 351], the “ELISA luminescence signal at 10 nmol/L peptide, relative to SEQ ID NO: 47 (=1)” value is no less than 0.7 ratio.
With YCEENYLDMEQYQYFIYFK(COCH2)Y (thioether 2-19) [cyclic peptide SEQ ID NO: 353] the figure was no less than 0.7 ratio.
As to YCEENYLDPEQYQYFHYFK(COCH2)R (thioether 2-19) [cyclic peptide SEQ ID NO: 390], the “ELISA luminescence signal at 10 nmol/L peptide, relative to SEQ ID NO: 47 (=1)” value lay within 0.1 to 0.5 ratio.
In the case of YCHENYLDPEQYQYFHYFK(COCH2)Y (thioether 2-19) [cyclic peptide SEQ ID NO: 392], the “ELISA luminescence signal at 10 nmol/L peptide, relative to SEQ ID NO: 47 (=1)” value was no less than 0.7 ratio.
The result for YCEENYLDPEQYQYFHYFK(COCH2)H (thioether 2-19) [cyclic peptide SEQ ID NO: 391] reads no less than 0.7 ratio.
With YCEENYLDPEQYQYFMYFK(COCH2)Y (thioether 2-19) [cyclic peptide SEQ ID NO: 358] the figure was no less than 0.7 ratio; with YCEENYLDPEQYMYFIYFK(COCH2)Y (thioether 2-19) [cyclic peptide SEQ ID NO: 356], no less than 0.7 ratio; with YCHENYLDPEQHQYFIYFK(COCH2)R (thioether 2-19) [cyclic peptide SEQ ID NO: 398], 0.5 to 0.7 ratio.
The result for YCEENYLDPEQMQYFIYFK(COCH2)Y (thioether 2-19) [cyclic peptide SEQ ID NO: 355] reads 0.1 to 0.5 ratio.
For the molecule YCEENYLDPMQYQYFIYFK(COCH2)Y (thioether 2-19) [cyclic peptide SEQ ID NO: 354], the “ELISA luminescence signal at 10 nmol/L peptide, relative to SEQ ID NO: 47 (=1)” value was no less than 0.7 ratio.
With YCHENYLDPEQYQYFHYFK(COCH2)R (thioether 2-19) [cyclic peptide SEQ ID NO: 394] the figure was 0.5 to 0.7 ratio.
As to YCEENYLDPEQHQYFIYFK(COCH2)R (thioether 2-19) [cyclic peptide SEQ ID NO: 396], the “ELISA luminescence signal at 10 nmol/L peptide, relative to SEQ ID NO: 47 (=1)” value lay in the range of 0.5 to 0.7 ratio.
In the case of YCEENYLDPEQYQMFIYFK(COCH2)Y (thioether 2-19) [cyclic peptide SEQ ID NO: 357], the “ELISA luminescence signal at 10 nmol/L peptide, relative to SEQ ID NO: 47 (=1)” value is 0.1 to 0.5 ratio.
Turning to YCHENYLDPEQYQYFHYFK(COCH2)H (thioether 2-19) [cyclic peptide SEQ ID NO: 395], the “ELISA luminescence signal at 10 nmol/L peptide, relative to SEQ ID NO: 47 (=1)” value is no less than 0.7 ratio.
Take YCHENYLDPEQHQYFHYFK(COCH2)Y (thioether 2-19) [cyclic peptide SEQ ID NO: 393]: the “ELISA luminescence signal at 10 nmol/L peptide, relative to SEQ ID NO: 47 (=1)” value lay within 0.1 to 0.5 ratio.
Consider YCEENYLMPEQYQYFIYFK(COCH2)Y (thioether 2-19) [cyclic peptide SEQ ID NO: 352], for which the “ELISA luminescence signal at 10 nmol/L peptide, relative to SEQ ID NO: 47 (=1)” value is no less than 0.7 ratio.
In the case of YCEENYLDPEQYQYFIYFK(COCH2)M (thioether 2-19) [cyclic peptide SEQ ID NO: 360], the “ELISA luminescence signal at 10 nmol/L peptide, relative to SEQ ID NO: 47 (=1)” value is no less than 0.7 ratio.
Regarding YCEENYLDPEQHQYFIYFK(COCH2)H (thioether 2-19) [cyclic peptide SEQ ID NO: 397], the “ELISA luminescence signal at 10 nmol/L peptide, relative to SEQ ID NO: 47 (=1)” value is no less than 0.7 ratio.
With YCEENYLDPEQYQYFIMFK(COCH2)Y (thioether 2-19) [cyclic peptide SEQ ID NO: 359] the figure was no less than 0.7 ratio; with SCIQQNYFWQYVFERYRYK(COCH2)Q (thioether 2-19 (inferred)) [cyclic peptide SEQ ID NO: 46], 0.5 to 0.7 ratio.
The result for TCPQNFRDELQFTYFTQYK(COCH2)Y (thioether 2-19 (inferred)) [cyclic peptide SEQ ID NO: 45] reads no less than 0.7 ratio; that for QCPQNFINPVQWRYFQHYK(COCH2)N (thioether 2-19 (inferred)) [cyclic peptide SEQ ID NO: 80], no less than 0.7 ratio; that for ICPQNFINPVQWRYFQHYK(COCH2)N (thioether 2-19 (inferred)) [cyclic peptide SEQ ID NO: 74], no less than 0.7 ratio.
Regarding KCPQNFINPVQWRAFQHYKN (not fully specified; thioether ring (C)-(K(acetyl))) [cyclic peptide SEQ ID NO: 64], the “ELISA luminescence signal at 10 nmol/L peptide, relative to SEQ ID NO: 47 (=1)” value was in the range of 0.5 to 0.7 ratio.
With KCAQNFINPVQWRYFQHYKN (thioether ring (C)-(K(acetyl))) [cyclic peptide SEQ ID NO: 54] the figure was no less than 0.7 ratio; with PCPQNFINPVQWRYFQHYK(COCH2)N (thioether 2-19 (inferred)) [cyclic peptide SEQ ID NO: 72], no less than 0.7 ratio; with KCPQNFINPAQWRYFQHYKN (not fully specified; thioether ring (C)-(K(acetyl))) [cyclic peptide SEQ ID NO: 61], no less than 0.7 ratio.
The result for KCPQNFINPVQWRYFAHYKN (not fully specified; thioether ring (C)-(K(acetyl))) [cyclic peptide SEQ ID NO: 65] reads no less than 0.7 ratio; that for ACPQNFINPVQWRYFQHYK(COCH2)N (thioether 2-19 (inferred)) [cyclic peptide SEQ ID NO: 53], no less than 0.7 ratio; that for KCPQNFIAPVQWRYFQHYKN (not fully specified; thioether ring (C)-(K(acetyl))) [cyclic peptide SEQ ID NO: 59], 0.5 to 0.7 ratio.
Regarding FCPQNFINPVQWRYFQHYK(COCH2)N (thioether 2-19 (inferred)) [cyclic peptide SEQ ID NO: 76], the “ELISA luminescence signal at 10 nmol/L peptide, relative to SEQ ID NO: 47 (=1)” value was no less than 0.7 ratio.
KCPQNFINPVQWRYFQHYKA (not fully specified; thioether ring (C)-(K(acetyl))) [cyclic peptide SEQ ID NO: 67]: the “ELISA luminescence signal at 10 nmol/L peptide, relative to SEQ ID NO: 47 (=1)” value was no less than 0.7 ratio.
Regarding KCPQNFANPVQWRYFQHYKN (thioether ring (C)-(K(acetyl))) [cyclic peptide SEQ ID NO: 58], the “ELISA luminescence signal at 10 nmol/L peptide, relative to SEQ ID NO: 47 (=1)” value lay within 0.5 to 0.7 ratio.
The result for VCPQNFINPVQWRYFQHYK(COCH2)N (thioether 2-19 (inferred)) [cyclic peptide SEQ ID NO: 75] reads no less than 0.7 ratio; that for KCPQNFINPVQARYFQHYKN (not fully specified; thioether ring (C)-(K(acetyl))) [cyclic peptide SEQ ID NO: 62], 0.1 to 0.5 ratio.
For KCPQAFINPVQWRYFQHYKN (thioether ring (C)-(K(acetyl))) [cyclic peptide SEQ ID NO: 56], the “ELISA luminescence signal at 10 nmol/L peptide, relative to SEQ ID NO: 47 (=1)” value is 0.1 to 0.5 ratio.
Regarding LCPQNFINPVQWRYFQHYK(COCH2)N (thioether 2-19 (inferred)) [cyclic peptide SEQ ID NO: 73], the “ELISA luminescence signal at 10 nmol/L peptide, relative to SEQ ID NO: 47 (=1)” value was no less than 0.7 ratio.
The result for KCPQNFINPVQWAYFQHYKN (not fully specified; thioether ring (C)-(K(acetyl))) [cyclic peptide SEQ ID NO: 63] reads no less than 0.7 ratio; that for KCPQNFINPVQWRYFQHYKN (thioether ring (C)-(K(acetyl))) [cyclic peptide SEQ ID NO: 47], no less than 0.7 ratio.
Turning to KCPQNFINAVQWRYFQHYKN (not fully specified; thioether ring (C)-(K(acetyl))) [cyclic peptide SEQ ID NO: 60], the “ELISA luminescence signal at 10 nmol/L peptide, relative to SEQ ID NO: 47 (=1)” value was no less than 0.7 ratio.
The result for KCPANFINPVQWRYFQHYKN (thioether ring (C)-(K(acetyl))) [cyclic peptide SEQ ID NO: 55] reads no less than 0.7 ratio.
Regarding GCPQNFINPVQWRYFQHYK(COCH2)N (thioether 2-19 (inferred)) [cyclic peptide SEQ ID NO: 71], the “ELISA luminescence signal at 10 nmol/L peptide, relative to SEQ ID NO: 47 (=1)” value is no less than 0.7 ratio.
The result for KCPQNFINPVQWRYFQAYKN (not fully specified; thioether ring (C)-(K(acetyl))) [cyclic peptide SEQ ID NO: 66] reads no less than 0.7 ratio; that for KCPQNAINPVQWRYFQHYKN (thioether ring (C)-(K(acetyl))) [cyclic peptide SEQ ID NO: 57], 0.5 to 0.7 ratio; that for YCPQNFINPVQWRYFQHYK(COCH2)N (thioether 2-19 (inferred)) [cyclic peptide SEQ ID NO: 77], no less than 0.7 ratio.
On to ACEYNYWNQVQFTFLIAFK(COCH2)R (thioether 2-19 (inferred)) [cyclic peptide SEQ ID NO: 44], for which the “ELISA luminescence signal at 10 nmol/L peptide, relative to SEQ ID NO: 47 (=1)” value lay within 0.5 to 0.7 ratio.
